From patent US20240132578A1

Columns and labels:
Experiment in all cases: cell-based or functional assay
[1] = biological target: HIV-1 Env of isolate 92UG114 (HIV-1)
[2] = biological target: HIV-1 Env of isolate MG RM-A-005 (pseudovirus) (HIV-1)
[3] = biological target: HIV-1 Env of isolate MGRM-C-014 (subtype C), on pseudovirus (HIV-1)
[4] = biological target: HIV-1 Env of isolate MGRM-G-006 (subtype G) (HIV-1)
[5] = biological target: HIV-1 Env of pseudovirus MGRM-D-012 (HIV-1)
[6] = biological target: HIV-1 Env of pseudovirus MGRM-D-024 (HIV-1)
[7] = biological target: HIV-1 Env of pseudovirus MGRM-D-029 (HIV-1)
[8] = biological target: HIV-1 envelope glycoprotein (Env) of isolate MG RM-AG-001 (HIV-1)
[9] = biological target: HIV-1 92TH021 Env (pseudovirus) (HIV-1)
[10] = biological target: HIV-1 93IN905 Env (HIV-1)
[11] = biological target: HIV-1 Env of isolate 92RW009 (clade A pseudovirus) (HIV-1)
[12] = biological target: HIV-1 Env of isolate MGRM-A-013 (clade A pseudovirus) (HIV-1)
[13] = biological target: HIV-1 Env of isolate MGRM-F1-020 (HIV-1)
[14] = biological target: HIV-1 Env of isolate NL43, clade B (HIV-1)
[15] = biological target: HIV-1 IAVI-C3 envelope (Env) on pseudovirus (HIV-1)
[16] = biological target: HIV-1 MGRM-AG-012 Env (pseudovirus) (HIV-1)
[17] = biological target: HIV-1 envelope glycoprotein (Env) of isolate LAVI_C3 (HIV-1)
[18] = biological target: HIV-1 envelope glycoprotein (Env) of isolate MGRM-C-022 (HIV-1)
[19] = biological target: HIV-1 Env of isolate APV_13, clade B (HIV-1)
[20] = biological target: HIV-1 Env of isolate MGRM-A-004 (clade A pseudovirus) (HIV-1)
[21] = biological target: HIV-1 Env of isolate MGRM-A-010 (clade A pseudovirus) (HIV-1)
[22] = biological target: HIV-1 Env of isolate MGRM-D-003 (clade D pseudovirus) (HIV-1)
[23] = biological target: HIV-1 Env of pseudovirus MGRM-F1-021 (clade F) (HIV-1)
[24] = biological target: HIV-1 MGRM-AG-006 Env (pseudovirus) (HIV-1)
[25] = biological target: HIV-1 MGRM-G-004 Env (pseudovirus) (HIV-1)
[26] = biological target: HIV-1 isolate 94UG114 envelope glycoprotein (Env), clade D, on pseudovirus (HIV-1)
[27] = biological target: HIV-1 Env of isolate 92UG024 (pseudovirus) (HIV-1)
[28] = biological target: HIV-1 Env of isolate MGRM-AE-004 (subtype AE) (HIV-1)
[29] = biological target: HIV-1 Env of isolate MGRM-AG-002 (subtype AG) (HIV-1)
[30] = biological target: HIV-1 Env of isolate MGRM-C-005 (HIV-1)
[31] = biological target: HIV-1 Env of isolate MGRM-D-016 (pseudovirus) (HIV-1)
[32] = biological target: HIV-1 Env of isolate MGRM-D-018 (pseudovirus) (HIV-1)
[33] = biological target: HIV-1 Env of isolate MGRM-D-020 (pseudovirus) (HIV-1)
[34] = biological target: HIV-1 Env of isolate MGRM-F1-004 (HIV-1)
[35] = biological target: HIV-1 Env of isolate MGRM-F1-015 (HIV-1)
[36] = biological target: HIV-1 Env of pseudovirus isolate MGRM-C-009 (clade C) (HIV-1)
[37] = biological target: HIV-1 CMU02 envelope protein (Env) on pseudovirus (HIV-1)
[38] = biological target: HIV-1 Env of isolate MGRM-F1-015 (pseudovirus) (HIV-1)
[39] = biological target: HIV-1 envelope glycoprotein (Env) of isolate 92RW008, subtype A (HIV-1)
[40] = biological target: HIV-1 envelope glycoprotein (Env) of isolate 93WR029, subtype A (HIV-1)
[41] = biological target: HIV-1 envelope glycoprotein (Env) of isolate MG RM-A-014, subtype A (HIV-1)
[42] = biological target: HIV-1 envelope glycoprotein (Env) of isolate MGRM-Chronic-B-003, on pseudovirus (HIV-1)
[43] = biological target: HIV-1 envelope glycoprotein (Env) of isolate MGRM-Chronic-B-020, on pseudovirus (HIV-1)
[44] = biological target: HIV-1 envelope glycoprotein (Env) of isolate NL43, on pseudovirus (HIV-1)
[45] = biological target: HIV-1 envelope glycoprotein (Env) of isolate SC422661.8, on pseudovirus (HIV-1)

Chain of 5345_I01 (PGT-137) (antibody) (VH): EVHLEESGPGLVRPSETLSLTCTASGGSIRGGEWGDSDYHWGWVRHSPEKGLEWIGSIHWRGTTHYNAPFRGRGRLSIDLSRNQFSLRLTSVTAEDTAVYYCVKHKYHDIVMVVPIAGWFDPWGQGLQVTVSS
Chain of 5345_I01 (PGT-137) (antibody) (VL): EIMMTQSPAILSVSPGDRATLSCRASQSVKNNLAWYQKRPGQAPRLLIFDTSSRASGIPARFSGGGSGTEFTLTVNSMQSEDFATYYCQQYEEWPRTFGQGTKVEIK
Chain of 4980_N08 (PGT-143) (antibody) (VH): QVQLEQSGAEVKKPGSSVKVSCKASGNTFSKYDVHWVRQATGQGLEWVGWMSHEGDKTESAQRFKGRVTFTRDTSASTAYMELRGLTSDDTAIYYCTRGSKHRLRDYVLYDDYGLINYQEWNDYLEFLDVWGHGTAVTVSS
Chain of 4980_N08 (PGT-143) (antibody) (VL): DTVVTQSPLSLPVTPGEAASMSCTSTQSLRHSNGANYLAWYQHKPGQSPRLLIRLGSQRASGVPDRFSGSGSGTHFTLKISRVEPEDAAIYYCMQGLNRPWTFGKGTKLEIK
Chain of PGT-144 (4970_K22) (antibody) (VH): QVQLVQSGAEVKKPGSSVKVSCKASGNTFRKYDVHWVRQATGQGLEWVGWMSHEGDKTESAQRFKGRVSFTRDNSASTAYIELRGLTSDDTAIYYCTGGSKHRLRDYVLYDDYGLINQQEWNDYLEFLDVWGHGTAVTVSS
Chain of PGT-144 (4970_K22) (antibody) (VL): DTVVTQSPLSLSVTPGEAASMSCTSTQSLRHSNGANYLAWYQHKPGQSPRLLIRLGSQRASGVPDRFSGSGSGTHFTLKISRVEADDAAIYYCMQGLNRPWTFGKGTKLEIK

## 4980_N08 (PGT-143) (antibody)
[1]
  IC50 (µg/mL), pseudovirus neutralization: > 50 µg/mL
[2]
  IC50 (µg/mL), single-round pseudovirus neutralization: 7.48 µg/mL
[3]
  IC50, single-round pseudovirus neutralization: 8.81 µg/mL
[4]
  IC50 (µg/mL), pseudovirus neutralization: 0.031 µg/mL

## VRC01 (antibody)
[1]
  IC50 (µg/mL), pseudovirus neutralization: 0.33 µg/mL
[2]
  IC50 (µg/mL), single-round pseudovirus neutralization: 0.095 µg/mL
[3]
  IC50, single-round pseudovirus neutralization: > 50 µg/mL
[4]
  IC50 (µg/mL), pseudovirus neutralization: 0.055 µg/mL
[5]
  IC50, pseudovirus neutralization: 0.216 µg/mL
[6]
  IC50, pseudovirus neutralization: 0.366 µg/mL
[7]
  IC50, pseudovirus neutralization: 3.22 µg/mL
[8]
  IC50: 0.228 µg/mL

## 4970_K22 (PGT-144) (antibody)
[1]
  IC50 (µg/mL), pseudovirus neutralization: > 50 µg/mL
[2]
  IC50 (µg/mL), single-round pseudovirus neutralization: 18.6 µg/mL
[3]
  IC50, single-round pseudovirus neutralization: > 50 µg/mL
[4]
  IC50 (µg/mL), pseudovirus neutralization: 3.84 µg/mL

## PGT-143 (4980_N08) (antibody)
[5]
  IC50, pseudovirus neutralization: > 50 µg/mL
[6]
  IC50, pseudovirus neutralization: > 50 µg/mL
[7]
  IC50, pseudovirus neutralization: 0.2 µg/mL
[8]
  IC50: 18.9 µg/mL

## 1496_C09 (PG9) (TCN-109) (antibody)
[9]
  IC50 (µg/ml), pseudovirus neutralization: 0.09 µg/mL
[10]
  IC50, pseudovirus neutralization: 0.048 µg/mL
[11]
  IC50 (µg/ml), pseudovirus neutralization: 0.03 µg/mL
[12]
  IC50 (µg/ml), pseudovirus neutralization: 0.16 µg/mL
[13]
  IC50 (µg/mL), pseudovirus neutralization: 6.4 µg/mL
[4]
  IC50 (µg/mL), pseudovirus neutralization: 1.98 µg/mL
[14]
  IC50 (µg/ml), pseudovirus neutralization: 0.32 µg/mL
[15]
  neutralization IC50: 12.9 µg/mL
[16]
  IC50 (µg/ml), pseudovirus neutralization: 1.37 µg/mL
[17]
  IC50 (µg/ml), pseudovirus neutralization: 1.45 µg/mL
[18]
  IC50 (µg/ml), pseudovirus neutralization: 0.19 µg/mL

## 2F5 (antibody)
[11]
  IC50 (µg/ml), pseudovirus neutralization: 39.1 µg/mL
[19]
  IC50 (µg/ml), pseudovirus neutralization: 3.81 µg/mL
[20]
  IC50 (µg/ml), pseudovirus neutralization: 7.49 µg/mL
[21]
  IC50 (µg/ml), pseudovirus neutralization: 20.8 µg/mL
[12]
  IC50 (µg/ml), pseudovirus neutralization: 0.66 µg/mL
[22]
  IC50, pseudovirus neutralization: > 50 µg/mL
[14]
  IC50 (µg/ml), pseudovirus neutralization: 2.02 µg/mL
[23]
  IC50: 1.37 µg/mL
[15]
  neutralization IC50: > 50 µg/mL
[24]
  IC50 (µg/ml), pseudovirus neutralization: 0.85 µg/mL
[16]
  IC50 (µg/ml), pseudovirus neutralization: 0.33 µg/mL
[25]
  IC50 (µg/ml), pseudovirus neutralization: > 50 µg/mL
[17]
  IC50 (µg/ml), pseudovirus neutralization: > 50 µg/mL
[18]
  IC50 (µg/ml), pseudovirus neutralization: > 50 µg/mL
[26]
  IC50 (µg/ml), pseudovirus neutralization: > 50 µg/mL

## PGT-144 (4970_K22) (antibody)
[5]
  IC50, pseudovirus neutralization: > 50 µg/mL
[6]
  IC50, pseudovirus neutralization: > 50 µg/mL
[7]
  IC50, pseudovirus neutralization: 0.459 µg/mL
[8]
  IC50: > 50 µg/mL

## 5345_I01 (PGT-137) (antibody)
[27]
  IC50 (µg/mL), pseudovirus neutralization: 0.106 µg/mL
[28]
  IC50, pseudovirus neutralization: > 50 µg/mL
[29]
  IC50, pseudovirus neutralization: > 50 µg/mL
[30]
  IC50 (µg/mL), pseudovirus neutralization: > 50 µg/mL
[31]
  IC50 (µg/mL), pseudovirus neutralization: > 50 µg/mL
[32]
  IC50 (µg/mL), pseudovirus neutralization: 15.1 µg/mL
[33]
  IC50 (µg/mL), pseudovirus neutralization: > 50 µg/mL
[34]
  IC50 (µg/mL), pseudovirus neutralization: 40.3 µg/mL
[35]
  IC50 (µg/mL), pseudovirus neutralization: > 50 µg/mL
[13]
  IC50 (µg/mL), pseudovirus neutralization: 1.93 µg/mL
[36]
  IC50, pseudovirus neutralization: > 50 µg/mL

## 4858_P08 (PGT-123) (antibody)
[10]
  IC50, pseudovirus neutralization: 0.0071 µg/mL
[37]
  IC50 (ug/mL), pseudovirus neutralization: > 10 µg/mL
[38]
  IC50 (µg/mL), pseudovirus neutralization: > 50 µg/mL
[39]
  IC50, pseudovirus neutralization: 3 ng/mL
[40]
  IC50, pseudovirus neutralization: > 50 µg/mL
[41]
  IC50, pseudovirus neutralization: 3 ng/mL
[42]
  IC50, pseudovirus neutralization: 8 ng/mL
[43]
  IC50, pseudovirus neutralization: 5 ng/mL
[44]
  IC50, pseudovirus neutralization: > 50 µg/mL
[45]
  IC50, pseudovirus neutralization: 0.039 µg/mL

## 4838_L06 (PGT-121) (antibody)
[37]
  IC50 (ug/mL), pseudovirus neutralization: > 10 µg/mL
[38]
  IC50 (µg/mL), pseudovirus neutralization: 28.4 µg/mL
[39]
  IC50, pseudovirus neutralization: 3 ng/mL
[40]
  IC50, pseudovirus neutralization: > 50 µg/mL
[41]
  IC50, pseudovirus neutralization: 3 ng/mL
[42]
  IC50, pseudovirus neutralization: 11 ng/mL
[43]
  IC50, pseudovirus neutralization: 4 ng/mL
[44]
  IC50, pseudovirus neutralization: > 50 µg/mL
[45]
  IC50, pseudovirus neutralization: 0.098 µg/mL
